The values below come from patent publication US20120171115A1 (AVIPEP, published 2012).

The target in the assay is recombinant HER2 ectodomain (human, UniProt P04626 23-652). In words: column shift assay: gel filtration monitored at A280, diabody pre-incubated with recombinant HER2 ectodomain. In general terms: SEC sorts molecules by how far they enter the pores of the column.

Procedure: Binding activity to soluble antigen was established by a column shift. […] In the column shift assay, at least two times mole excess of soluble antigen to diabody was incubated for 1 hr at ambient temperature. Binding activity was determined by comparing the resulting diabody/antigen complex peak to the free diabody peak. The elution profiles of the diabody or diabody/antigen complex was monitored either directly though absorbance at 280 nm or, in cases where the diabody was Europium labelled, elution fractions were measured in a Victor time-resolved fluorometer using the Europium mode in the Victor multilabel program wizard.

B1: AVP07-17 anti-Her2 diabody (other)
chain: QVQLVQSGAEVKKPGESLKISCKGSGYSFTSYWIAWVRQMPGKGLEYMGLIYPGDSDTKYSPSFQGQVTISVDKSVSTAYLQWSSLKPSDSAVYFCARHDVGYCSSSNCAKWPEYFQHWGQGTLVTVSSGGGGSQSVLTQPPSVSAAPGQKVTISCSGSSSNIGNNYVSWYQQLPGTVPKLLIYGHTNRPAGVPDRFSGSKSGTSASLAISGFRSEDEADYYCAAWDDSLSGWVFGGGTKLTVLGAAAEQKLISEEDLNGAAHHHHHH
notes: Diabody: homodimer of VH-Gly4Ser-VL chains from a human anti-HER2 mAb, with a C-terminal His6 tag from cloning; also called AVP07-17 Avibody
B1: the binding result was “binds”.
